Results as given in patent US20050042720A1, “Novel promiscuous G alpha protein mutants and their use” (7TM Pharma A/S, priority 2003, published 2005).

Target: Gq-coupled receptors
Test: cell-based or functional assay

- decrease in IP1 accumulation: 20%
B1: GαqG66D, P21279 1-359 (protein)
chain: MTLESIMACCLSEEAKEARRINDEIERHVRRDKRDARRELKLLLLGTGESGKSTFIKQMRIIHGSDYSDEDKRGFTKLVYQNIFTAMQAMIRAMDTLKIPYKYEHNKAHAQLVREVDVEKVSAFENPYVDAIKSLWNDPGIQECYDRRREYQLSDSTKYYLNDLDRVADPSYLPTQQDVLRVRVPTTGIIEYPFDLQSVIFRMVDVGGQRSERRKWIHCFENVTSIMFLVALSEYDQVLVESDNENRMEESKALFRTIITYPWFQNSSVILFLNKKDLLEEKIMYSHLVDYFPEYDGPQRDAQAAREFILKMFVDLNPDSDKIIYSHFTCATDTENIRFVFAAVKDTILQLNLKEYNLV
modifications: not fully specified
